Measured values reported in paper PMC4572887, “GnT1IP-L specifically inhibits MGAT1 in the Golgi via its luminal domain” (eLife, 2015).

Legend:
human MGAT1-mChe = target: T1, human MGAT1-mChe (human, UniProt P26572 1-445); assay: FRET or BRET; acceptor-bleaching FRET microscopy on fixed cells, mVen donor and mChe acceptor; COS-7 cells stably expressing GnT1IP-L-mVen, transiently transfected with the mChe-tagged partner; untreated controls, recovery 4 hr after removal of nocodazole, and 40 µM chloroquine for 4 or 16 hr; settings: partners not purified
T1 construct: N-acetylglucosaminyltransferase MGAT1, human, full-length cDNA clone; also called GlcNAc-TI; GnT-1; source: COS-7 or Lec1 CHO cells, transiently transfected; in cells; not shown: monomeric mCherry (mChe), C-terminal, kept
T1 sequence (looked up): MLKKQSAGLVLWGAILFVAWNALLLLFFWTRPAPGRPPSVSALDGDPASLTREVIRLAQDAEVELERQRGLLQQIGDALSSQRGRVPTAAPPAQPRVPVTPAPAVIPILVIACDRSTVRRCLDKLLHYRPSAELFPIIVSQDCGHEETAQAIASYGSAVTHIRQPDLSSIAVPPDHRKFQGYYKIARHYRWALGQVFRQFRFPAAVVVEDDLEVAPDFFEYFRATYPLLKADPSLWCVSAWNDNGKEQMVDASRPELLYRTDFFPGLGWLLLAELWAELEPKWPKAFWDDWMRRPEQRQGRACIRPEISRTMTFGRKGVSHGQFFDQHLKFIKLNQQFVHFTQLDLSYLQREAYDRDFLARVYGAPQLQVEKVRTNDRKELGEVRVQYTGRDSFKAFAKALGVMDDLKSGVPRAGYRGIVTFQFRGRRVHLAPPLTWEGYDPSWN

[1] = target: the molecule itself; assay: as above
[2] = target: the molecule itself; assay: FRET or BRET; COS-7 cells stably expressing GnT1IP-L-mVen, co-transfected with GnT1IP-L-mChe and MGAT1-HA as competitor, with or without 40 µM chloroquine for 4 or 16 hr; FRET efficiency by acceptor bleaching

B1: Mouse GnT1IP-L-mVen (natural protein, UniProt Q9D4R2-2 1-417, looked up)
chain: MCLGESVGDLRTVATAPWEGEQARGVKDAGSVPVQPGVGSDAATMKAKNVNLLFAFVAVLLFGFSCFCISRMNQTNNQLINCRNHVLEFKEIMLRLKNKSENHHQDLMQVLYQMKRKAAHTTRSSGNFLEKKGSILSQHETLPNQFEVLKYFLPHLRTAGKLYPAIATSKGRAGVSFALGISTINRGNHTYLKQTLTSVLSRMTPEEEEDSVVIVSVADTDESYLKSVVRMVKTKFRKQVQSGVLEVISIPTLFYPQTLLDKKTKTDSESWQIKQVLDFCILMLYAQPKATYYLQLEDDIVAKKMYFTKMKDFVNSLTSKNWFFIEFSVLGFIGKLFRSKDLTDFVHFFLMFYETKPIDILLDDIFLIRVCISGEPVRSCLQRKKGFRIQYRPSLFQHVGTQSSFPGREQHLKDNYY
notes: GnT1IP-L, mouse, the long form of 417 aa (GnT1IP-S with 44 additional N-terminal amino acids), GenBank HM067443; In the homomer FRET experiments the second copy carried C-terminal monomeric mCherry (GnT1IP-L-mChe) instead of mVen; it is written as the same molecule; also called MGAT4D (long form); source: COS-7 or Lec1 CHO cells stably expressing it, or COS-7 cells transiently transfected; in …
- FRET efficiency (untreated control) (human MGAT1-mChe): 38%
- FRET efficiency (untreated control) [1]: 32%
- fold increase of homomer FRET with chloroquine, MGAT1-HA co-expressed as competitor [2]: ~2 fold
